In article PMC11381810:

Tests used:
[1] = target: SNAP25a (1–206) M49C, endogenous cysteines replaced by serine (Rattus norvegicus) (UniProt P60881); assay: FRET or BRET + SEC; equimolar stopped-flow titration at 37 °C (kobs^2 hyperbolic) and size-exclusion chromatography of the 1:1 mix after overnight incubation at 4 °C (excess of free SNAP25)
[2] = target: SNAP25a (1–206) M49C, endogenous cysteines replaced by serine (Rattus norvegicus) (UniProt P60881); assay: FRET or BRET; stopped-flow; Alexa Fluor 488 (donor) and Alexa Fluor 647 (acceptor) on syntaxin and SNAP25; one partner fixed at 0.125 μM and the other titrated, or equimolar; 37 °C; 20 mM Hepes, 150 mM KCl, 0.1 mM TCEP, pH ~7.4
[3] = target: 2:1 syntaxin:SNAP25 complex (premixed syntaxin-1A (1–265) S225C and SNAP25a (1–206) M49C) (Rattus norvegicus) (UniProt P32851); assay: FRET or BRET; stopped-flow; donor-labelled syntaxin and acceptor-labelled SNAP25 at 1:1, unlabeled synaptobrevin titrated in excess; syntaxin and SNAP25 premixed, or SNAP25 and synaptobrevin added together to syntaxin; 37 °C
[4] = target: syntaxin-1A (1–265) S225C, endogenous cysteines replaced by serine (Rattus norvegicus) (UniProt P32851); assay: FRET or BRET; stopped-flow; Alexa Fluor 488 (donor) and Alexa Fluor 647 (acceptor) on syntaxin and SNAP25; one partner fixed at 0.125 μM and the other titrated, or equimolar; 37 °C; 20 mM Hepes, 150 mM KCl, 0.1 mM TCEP, pH ~7.4

“syntaxin-1A (1–265) S225C, endogenous cysteines replaced by serine (from UniProt P32851 1-265) (domain or fragment)” was tested, and the stoichiometry N (syntaxin per SNAP25) [1] was 2 and the intercept of kobs over [syntaxin]0 [2] was 0.0032.
“synaptobrevin 2 (1–96) S61C (from UniProt P63045 1-96) (domain or fragment)” gave a rate constant of the irreversible step (first, exponential phase) [3] of 7520 M⁻¹ s⁻¹.
With “SNAP25a (1–206) M49C, endogenous cysteines replaced by serine (from UniProt P60881-2 1-206) (natural protein)” the intercept of kobs over [SNAP25]0 [4] was 0.019.
